The record followed here is patent US20220229068A1, “DETECTION OF PROTEIN TO PROTEIN INTERACTIONS” (THE GOVERNING COUNCIL OF THE UNIVERSITY OF TORONTO, priority 2019, published 2022).

What all share (assay): SIMPL ELISA, bait-IN/prey-CIC
For orientation: In an ELISA, binding on a coated surface is turned into a signal by an enzyme label.

Experiment [1] addresses GRB2 (prey, CIC format) (human) (UniProt P62993).
Experiment [2] concerns the target BCL2L1 (prey, CIC format) (human) (UniProt Q07817).
Experiment [3] addresses CCNA1 (prey, CIC format) (human) (UniProt P78396).
For experiment [4], the target named is T1, DRAP1 (prey, CIC format) (human) (UniProt Q14919).
T1 sequence (looked up): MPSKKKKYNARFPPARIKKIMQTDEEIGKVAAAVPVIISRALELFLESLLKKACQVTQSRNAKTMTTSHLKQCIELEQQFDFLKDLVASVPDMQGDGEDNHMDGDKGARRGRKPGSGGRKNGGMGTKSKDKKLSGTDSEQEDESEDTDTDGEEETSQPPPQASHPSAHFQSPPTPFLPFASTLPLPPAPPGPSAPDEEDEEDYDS

The target of experiment [5] is CD58 (prey, CIC format) (human) (UniProt P19256).
Chain of CD58 (prey, CIC format) (human) (P19256 29-250 limits assumed): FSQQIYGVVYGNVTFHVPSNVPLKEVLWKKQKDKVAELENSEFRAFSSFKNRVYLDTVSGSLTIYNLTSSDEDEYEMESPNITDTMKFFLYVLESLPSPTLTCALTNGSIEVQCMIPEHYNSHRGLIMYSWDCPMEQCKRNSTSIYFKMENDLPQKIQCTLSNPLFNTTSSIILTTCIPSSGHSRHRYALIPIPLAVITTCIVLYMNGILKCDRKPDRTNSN
For experiment [6], the target named is T2, NCBP2 (prey, CIC format) (human) (UniProt P52298).
T2 sequence (looked up): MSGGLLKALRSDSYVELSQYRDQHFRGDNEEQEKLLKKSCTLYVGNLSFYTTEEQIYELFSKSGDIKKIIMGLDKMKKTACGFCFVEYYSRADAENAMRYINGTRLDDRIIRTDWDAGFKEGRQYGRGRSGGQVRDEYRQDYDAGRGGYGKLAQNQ

For experiment [7], the target named is MCM3 (prey, CIC format) (human) (UniProt P25205).
Chain of MCM3 (prey, CIC format) (human) (P25205 whole entry): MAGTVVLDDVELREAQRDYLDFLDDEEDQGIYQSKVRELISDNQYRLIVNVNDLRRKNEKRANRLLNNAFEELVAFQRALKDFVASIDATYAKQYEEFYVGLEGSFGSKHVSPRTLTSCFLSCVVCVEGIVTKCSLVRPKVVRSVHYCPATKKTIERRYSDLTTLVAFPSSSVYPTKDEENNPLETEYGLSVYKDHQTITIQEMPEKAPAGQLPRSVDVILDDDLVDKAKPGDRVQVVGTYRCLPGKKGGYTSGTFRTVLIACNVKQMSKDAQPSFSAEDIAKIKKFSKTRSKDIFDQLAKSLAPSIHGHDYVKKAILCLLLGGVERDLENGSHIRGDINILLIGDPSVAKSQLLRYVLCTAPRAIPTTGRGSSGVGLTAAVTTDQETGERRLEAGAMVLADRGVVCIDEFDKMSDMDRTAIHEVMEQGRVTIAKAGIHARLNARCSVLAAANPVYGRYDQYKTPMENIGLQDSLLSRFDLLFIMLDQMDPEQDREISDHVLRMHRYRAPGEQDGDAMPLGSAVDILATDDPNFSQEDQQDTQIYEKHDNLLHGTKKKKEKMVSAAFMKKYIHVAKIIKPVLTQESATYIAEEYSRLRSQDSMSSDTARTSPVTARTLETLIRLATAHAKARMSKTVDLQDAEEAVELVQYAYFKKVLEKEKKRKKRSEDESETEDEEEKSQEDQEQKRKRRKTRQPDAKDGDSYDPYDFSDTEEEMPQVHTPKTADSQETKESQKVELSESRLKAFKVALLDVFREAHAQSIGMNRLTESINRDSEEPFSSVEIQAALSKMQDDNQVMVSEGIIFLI
The target of experiment [8] is CGB5 (prey, CIC format) (human) (UniProt P0DN86).
Experiment [9] has as its target PCNA (prey, CIC format) (human) (UniProt P12004).
For experiment [10], the target named is DDIT3 (prey, CIC format) (human) (UniProt P35638).
Chain of DDIT3 (prey, CIC format) (human) (P35638 whole entry): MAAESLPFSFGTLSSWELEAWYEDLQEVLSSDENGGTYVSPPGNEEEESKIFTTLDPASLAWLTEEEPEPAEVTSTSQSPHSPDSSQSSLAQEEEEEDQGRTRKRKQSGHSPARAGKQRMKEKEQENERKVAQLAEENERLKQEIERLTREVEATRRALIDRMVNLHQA
Experiment [11] concerns the target T3, NRG1 (prey, CIC format) (human) (UniProt Q02297).
T3 sequence (looked up): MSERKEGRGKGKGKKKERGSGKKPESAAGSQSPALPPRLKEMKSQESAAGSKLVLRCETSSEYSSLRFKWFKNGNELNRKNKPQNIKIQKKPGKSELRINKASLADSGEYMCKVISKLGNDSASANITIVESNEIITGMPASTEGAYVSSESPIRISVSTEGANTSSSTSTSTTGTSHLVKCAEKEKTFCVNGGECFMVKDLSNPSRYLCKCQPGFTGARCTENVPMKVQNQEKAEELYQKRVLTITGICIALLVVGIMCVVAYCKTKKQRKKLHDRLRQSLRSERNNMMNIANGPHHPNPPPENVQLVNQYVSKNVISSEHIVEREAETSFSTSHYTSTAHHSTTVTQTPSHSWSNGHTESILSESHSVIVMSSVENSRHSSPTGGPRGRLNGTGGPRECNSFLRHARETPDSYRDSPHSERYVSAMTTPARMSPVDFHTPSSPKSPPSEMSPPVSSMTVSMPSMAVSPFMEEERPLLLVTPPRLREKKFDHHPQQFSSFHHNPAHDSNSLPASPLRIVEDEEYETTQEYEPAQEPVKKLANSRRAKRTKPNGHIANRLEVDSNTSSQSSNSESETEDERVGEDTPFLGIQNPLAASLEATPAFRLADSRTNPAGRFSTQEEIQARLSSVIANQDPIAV

In experiment [12] the target is GRAP2 (prey, CIC format) (human) (UniProt O75791).
Chain of GRAP2 (prey, CIC format) (human) (O75791 whole entry): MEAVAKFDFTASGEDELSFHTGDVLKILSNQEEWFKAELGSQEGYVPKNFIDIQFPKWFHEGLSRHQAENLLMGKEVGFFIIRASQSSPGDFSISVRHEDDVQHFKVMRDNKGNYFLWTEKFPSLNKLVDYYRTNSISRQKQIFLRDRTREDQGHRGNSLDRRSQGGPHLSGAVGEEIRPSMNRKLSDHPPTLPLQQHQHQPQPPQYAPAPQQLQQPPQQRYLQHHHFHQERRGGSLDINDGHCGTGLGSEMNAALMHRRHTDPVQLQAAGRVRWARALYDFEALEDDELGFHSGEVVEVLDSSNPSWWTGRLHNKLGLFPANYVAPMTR
Experiment [13] concerns the target CKS1B (prey, CIC format) (human) (UniProt P61024).
Experiment [14] addresses PPP3R1 (prey, CIC format) (human) (UniProt P63098).
The target in experiment [15] is T4, RB1 (prey, CIC format) (human) (UniProt P06400).
T4 sequence (looked up): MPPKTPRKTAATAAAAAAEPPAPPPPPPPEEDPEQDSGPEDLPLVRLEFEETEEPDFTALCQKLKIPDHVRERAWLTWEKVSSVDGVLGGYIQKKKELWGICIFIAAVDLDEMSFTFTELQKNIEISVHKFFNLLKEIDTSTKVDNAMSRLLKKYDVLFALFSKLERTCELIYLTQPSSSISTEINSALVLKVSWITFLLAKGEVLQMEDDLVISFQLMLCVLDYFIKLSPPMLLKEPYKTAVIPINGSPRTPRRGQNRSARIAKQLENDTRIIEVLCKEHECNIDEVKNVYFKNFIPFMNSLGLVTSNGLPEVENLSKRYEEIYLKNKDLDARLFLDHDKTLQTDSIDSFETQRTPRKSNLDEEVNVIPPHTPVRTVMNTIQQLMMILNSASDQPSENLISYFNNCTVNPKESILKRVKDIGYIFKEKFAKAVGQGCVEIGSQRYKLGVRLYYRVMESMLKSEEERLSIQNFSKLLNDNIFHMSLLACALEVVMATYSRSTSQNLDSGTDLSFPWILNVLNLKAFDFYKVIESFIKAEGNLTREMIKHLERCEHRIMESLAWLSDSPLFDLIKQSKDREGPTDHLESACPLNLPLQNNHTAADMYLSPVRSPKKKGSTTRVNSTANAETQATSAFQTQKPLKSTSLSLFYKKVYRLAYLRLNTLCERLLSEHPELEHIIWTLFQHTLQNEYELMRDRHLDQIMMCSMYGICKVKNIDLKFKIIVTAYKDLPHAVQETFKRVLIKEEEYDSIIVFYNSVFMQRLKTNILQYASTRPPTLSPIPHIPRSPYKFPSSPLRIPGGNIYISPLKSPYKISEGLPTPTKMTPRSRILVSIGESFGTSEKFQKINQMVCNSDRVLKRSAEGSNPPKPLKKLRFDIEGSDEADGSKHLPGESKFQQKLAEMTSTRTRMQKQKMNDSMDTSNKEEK

The target of experiment [16] is ZBTB16 (prey, CIC format) (human) (UniProt Q05516).
Chain of ZBTB16 (prey, CIC format) (human) (Q05516 whole entry): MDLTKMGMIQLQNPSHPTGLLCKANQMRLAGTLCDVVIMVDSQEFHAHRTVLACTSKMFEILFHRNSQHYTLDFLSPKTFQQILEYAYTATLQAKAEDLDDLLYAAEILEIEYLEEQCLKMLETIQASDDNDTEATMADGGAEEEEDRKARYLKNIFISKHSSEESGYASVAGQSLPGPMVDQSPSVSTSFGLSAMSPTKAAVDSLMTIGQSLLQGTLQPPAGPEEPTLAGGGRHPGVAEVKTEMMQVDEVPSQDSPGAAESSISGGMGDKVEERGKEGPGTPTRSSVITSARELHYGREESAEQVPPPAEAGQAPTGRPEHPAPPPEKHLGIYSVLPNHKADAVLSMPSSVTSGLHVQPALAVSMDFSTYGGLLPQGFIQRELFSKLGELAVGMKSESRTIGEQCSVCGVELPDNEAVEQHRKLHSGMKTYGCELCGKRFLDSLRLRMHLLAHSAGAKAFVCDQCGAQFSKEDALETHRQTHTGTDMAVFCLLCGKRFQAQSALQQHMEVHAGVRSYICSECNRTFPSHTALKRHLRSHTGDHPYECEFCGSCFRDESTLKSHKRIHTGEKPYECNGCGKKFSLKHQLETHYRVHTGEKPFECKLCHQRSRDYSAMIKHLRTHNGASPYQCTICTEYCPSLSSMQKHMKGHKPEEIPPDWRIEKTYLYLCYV
For experiment [17], the target named is T5, LAT (prey, CIC format) (human) (UniProt O43561).
T5 sequence (looked up): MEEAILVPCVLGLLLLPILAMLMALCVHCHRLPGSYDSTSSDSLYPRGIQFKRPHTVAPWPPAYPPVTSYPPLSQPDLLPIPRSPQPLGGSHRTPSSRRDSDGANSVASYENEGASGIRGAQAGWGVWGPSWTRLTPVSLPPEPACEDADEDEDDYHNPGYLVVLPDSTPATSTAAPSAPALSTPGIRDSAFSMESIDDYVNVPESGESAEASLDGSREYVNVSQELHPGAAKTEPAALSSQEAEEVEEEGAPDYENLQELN

Experiment [18] deals with T6, PEX11B (prey, CIC format) (human) (UniProt O96011).
T6 sequence (looked up): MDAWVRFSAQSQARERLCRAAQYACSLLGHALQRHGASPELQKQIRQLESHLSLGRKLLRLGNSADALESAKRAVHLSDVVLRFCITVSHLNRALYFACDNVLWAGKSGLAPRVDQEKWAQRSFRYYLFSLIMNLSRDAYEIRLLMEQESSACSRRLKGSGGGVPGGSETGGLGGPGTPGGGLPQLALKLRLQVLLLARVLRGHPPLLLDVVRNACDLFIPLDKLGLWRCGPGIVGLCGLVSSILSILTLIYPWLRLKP

The target of experiment [19] is NFE2L1 (prey, CIC format) (human) (UniProt Q14494).
Chain of NFE2L1 (prey, CIC format) (human) (Q14494 whole entry): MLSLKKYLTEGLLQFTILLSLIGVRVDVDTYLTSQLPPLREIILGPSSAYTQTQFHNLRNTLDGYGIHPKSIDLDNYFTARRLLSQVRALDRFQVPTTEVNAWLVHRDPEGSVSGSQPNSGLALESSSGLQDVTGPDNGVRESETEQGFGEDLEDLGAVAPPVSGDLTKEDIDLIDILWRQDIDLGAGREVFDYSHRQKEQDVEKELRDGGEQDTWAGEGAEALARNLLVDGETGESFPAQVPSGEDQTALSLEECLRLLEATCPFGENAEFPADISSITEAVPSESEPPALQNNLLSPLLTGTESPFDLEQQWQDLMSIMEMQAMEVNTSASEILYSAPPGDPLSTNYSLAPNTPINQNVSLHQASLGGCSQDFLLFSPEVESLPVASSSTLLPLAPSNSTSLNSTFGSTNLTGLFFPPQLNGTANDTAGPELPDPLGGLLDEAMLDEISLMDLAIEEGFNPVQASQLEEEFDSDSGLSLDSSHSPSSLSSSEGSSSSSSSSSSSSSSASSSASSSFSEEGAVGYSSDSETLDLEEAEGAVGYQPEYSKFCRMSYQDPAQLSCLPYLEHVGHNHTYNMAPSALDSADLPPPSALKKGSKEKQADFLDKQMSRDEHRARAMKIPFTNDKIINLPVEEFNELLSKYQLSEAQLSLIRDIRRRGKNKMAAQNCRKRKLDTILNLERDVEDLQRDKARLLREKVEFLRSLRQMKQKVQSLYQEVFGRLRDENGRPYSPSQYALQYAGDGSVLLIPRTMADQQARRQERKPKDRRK
Experiment [20] has as its target TNFRSF10B (prey, CIC format) (human) (UniProt O14763).
For experiment [21], the target named is T7, S100B (prey, CIC format) (human) (UniProt P04271).
T7 sequence (looked up): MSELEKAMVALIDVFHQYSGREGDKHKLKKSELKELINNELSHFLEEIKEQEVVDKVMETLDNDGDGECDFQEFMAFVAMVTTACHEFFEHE

For experiment [22], the target named is T8, MCM5 (prey, CIC format) (human) (UniProt P33992).
T8 sequence (looked up): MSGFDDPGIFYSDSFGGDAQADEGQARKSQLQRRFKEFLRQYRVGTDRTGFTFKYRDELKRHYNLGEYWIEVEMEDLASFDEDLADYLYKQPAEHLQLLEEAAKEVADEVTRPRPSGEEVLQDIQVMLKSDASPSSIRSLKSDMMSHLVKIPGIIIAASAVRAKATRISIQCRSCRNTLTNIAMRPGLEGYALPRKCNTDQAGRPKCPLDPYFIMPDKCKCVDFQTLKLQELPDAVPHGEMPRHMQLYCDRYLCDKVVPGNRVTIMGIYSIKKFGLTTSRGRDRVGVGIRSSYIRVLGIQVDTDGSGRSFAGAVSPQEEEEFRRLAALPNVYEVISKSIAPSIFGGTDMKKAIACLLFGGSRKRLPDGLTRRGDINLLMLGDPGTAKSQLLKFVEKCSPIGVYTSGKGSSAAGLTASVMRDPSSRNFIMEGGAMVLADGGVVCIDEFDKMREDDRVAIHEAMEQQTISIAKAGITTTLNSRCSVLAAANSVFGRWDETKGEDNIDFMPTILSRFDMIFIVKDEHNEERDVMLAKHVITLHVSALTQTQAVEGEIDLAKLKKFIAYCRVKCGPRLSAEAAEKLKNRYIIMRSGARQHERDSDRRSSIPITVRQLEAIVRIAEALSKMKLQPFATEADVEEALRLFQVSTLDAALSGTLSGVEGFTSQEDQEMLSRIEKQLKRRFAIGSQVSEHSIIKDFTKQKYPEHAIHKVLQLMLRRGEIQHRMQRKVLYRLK

The target of experiment [23] is ARHGAP1 (prey, CIC format) (human) (UniProt Q07960).
Chain of ARHGAP1 (prey, CIC format) (human) (Q07960 whole entry): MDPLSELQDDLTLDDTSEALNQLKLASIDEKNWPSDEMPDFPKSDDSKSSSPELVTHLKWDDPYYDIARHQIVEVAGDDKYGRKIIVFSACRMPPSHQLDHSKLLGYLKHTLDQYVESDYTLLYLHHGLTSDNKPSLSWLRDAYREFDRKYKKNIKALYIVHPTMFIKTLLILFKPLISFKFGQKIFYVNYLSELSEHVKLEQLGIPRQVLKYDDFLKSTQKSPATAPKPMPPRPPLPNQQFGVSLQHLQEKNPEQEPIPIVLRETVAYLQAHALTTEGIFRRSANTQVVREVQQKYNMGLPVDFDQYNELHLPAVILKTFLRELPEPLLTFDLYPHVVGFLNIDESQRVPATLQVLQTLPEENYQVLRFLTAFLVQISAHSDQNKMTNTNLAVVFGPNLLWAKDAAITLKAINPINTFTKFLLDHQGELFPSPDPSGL
In experiment [24] the target is T9, DCP1A (prey, CIC format) (human) (UniProt Q9NPI6).
T9 sequence (looked up): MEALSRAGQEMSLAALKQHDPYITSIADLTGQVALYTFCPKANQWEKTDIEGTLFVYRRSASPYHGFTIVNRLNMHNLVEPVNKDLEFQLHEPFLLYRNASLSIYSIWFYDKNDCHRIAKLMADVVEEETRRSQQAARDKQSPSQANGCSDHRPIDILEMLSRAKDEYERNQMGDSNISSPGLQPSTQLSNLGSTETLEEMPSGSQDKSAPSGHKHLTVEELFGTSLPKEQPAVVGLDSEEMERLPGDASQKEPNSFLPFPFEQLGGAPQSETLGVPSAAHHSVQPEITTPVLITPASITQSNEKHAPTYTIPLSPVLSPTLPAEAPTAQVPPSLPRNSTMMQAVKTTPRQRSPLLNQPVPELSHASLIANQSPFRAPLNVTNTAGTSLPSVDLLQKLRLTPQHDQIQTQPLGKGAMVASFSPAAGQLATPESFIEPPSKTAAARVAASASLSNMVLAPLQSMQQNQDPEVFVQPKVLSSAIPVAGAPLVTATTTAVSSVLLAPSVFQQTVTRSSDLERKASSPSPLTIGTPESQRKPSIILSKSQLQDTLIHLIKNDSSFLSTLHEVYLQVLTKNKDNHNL

Chain of PCNA (prey, CIC format) (human) (P12004 whole entry): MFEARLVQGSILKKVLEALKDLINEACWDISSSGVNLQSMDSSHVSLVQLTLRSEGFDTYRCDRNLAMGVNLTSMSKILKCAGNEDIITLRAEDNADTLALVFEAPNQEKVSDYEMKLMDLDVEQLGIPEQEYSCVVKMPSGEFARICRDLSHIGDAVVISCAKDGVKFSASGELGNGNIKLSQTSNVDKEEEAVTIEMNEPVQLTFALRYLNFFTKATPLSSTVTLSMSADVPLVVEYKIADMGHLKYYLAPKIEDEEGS
Chain of CCNA1 (prey, CIC format) (human) (P78396 whole entry): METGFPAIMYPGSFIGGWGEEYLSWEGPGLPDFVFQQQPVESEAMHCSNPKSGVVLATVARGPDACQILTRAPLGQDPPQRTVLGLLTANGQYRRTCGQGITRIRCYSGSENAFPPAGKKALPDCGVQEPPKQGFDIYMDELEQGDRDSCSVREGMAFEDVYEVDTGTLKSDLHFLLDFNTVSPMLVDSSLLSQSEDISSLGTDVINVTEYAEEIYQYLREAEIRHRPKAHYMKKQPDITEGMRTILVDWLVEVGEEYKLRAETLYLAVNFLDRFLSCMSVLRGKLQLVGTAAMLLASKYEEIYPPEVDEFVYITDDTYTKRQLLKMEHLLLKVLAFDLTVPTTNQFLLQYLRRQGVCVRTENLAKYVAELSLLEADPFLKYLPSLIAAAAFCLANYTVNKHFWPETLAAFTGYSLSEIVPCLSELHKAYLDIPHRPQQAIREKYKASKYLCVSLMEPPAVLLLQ
Chain of PPP3R1 (prey, CIC format) (human) (P63098 whole entry): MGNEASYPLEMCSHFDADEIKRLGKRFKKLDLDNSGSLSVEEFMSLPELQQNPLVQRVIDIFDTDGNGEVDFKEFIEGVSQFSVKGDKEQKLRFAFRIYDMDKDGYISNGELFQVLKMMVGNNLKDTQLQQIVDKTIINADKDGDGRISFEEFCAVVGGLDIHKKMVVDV
Chain of BCL2L1 (prey, CIC format) (human) (Q07817 whole entry): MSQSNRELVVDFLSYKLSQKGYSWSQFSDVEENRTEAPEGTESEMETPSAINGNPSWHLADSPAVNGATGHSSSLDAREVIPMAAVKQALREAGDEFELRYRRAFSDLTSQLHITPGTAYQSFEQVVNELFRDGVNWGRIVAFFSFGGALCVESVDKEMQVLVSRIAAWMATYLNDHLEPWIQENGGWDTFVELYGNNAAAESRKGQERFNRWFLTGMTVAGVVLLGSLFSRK
Chain of CKS1B (prey, CIC format) (human) (P61024 whole entry): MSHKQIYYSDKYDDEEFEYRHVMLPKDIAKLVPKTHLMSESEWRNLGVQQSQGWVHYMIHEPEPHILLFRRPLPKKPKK
Chain of GRB2 (prey, CIC format) (human) (P62993 whole entry): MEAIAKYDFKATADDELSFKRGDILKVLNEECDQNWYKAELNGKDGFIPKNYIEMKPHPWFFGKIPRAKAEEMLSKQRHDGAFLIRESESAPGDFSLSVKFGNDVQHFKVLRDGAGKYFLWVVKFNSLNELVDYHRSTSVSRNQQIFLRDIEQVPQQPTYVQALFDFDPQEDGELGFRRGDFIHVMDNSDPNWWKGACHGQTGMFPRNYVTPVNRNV

Take “CBLB (bait, IN format) (from UniProt Q13191 1-982)”: the PLU mean in experiment [1] turned out to be 2.61; in [2], 0.272.

“CDKN1B (bait, IN format) (from UniProt P46527 1-198)”: the PLU mean in experiment [3] was 0.686; in [4] it was 0.229.

For the substance “CGA (bait, IN format) (from UniProt P01215 25-116) (ligand)”, the PLU mean in experiment [5] was determined as 0.131; in [6], 0.0363; in experiment [7] it was 0.0738; in [8] it was 0.435.

“ERBB3 (bait, IN format) (from UniProt P21860 20-1342) (receptor)”: the PLU mean in [9] was determined as 0.0812; in [10] it was 0.28; in [11], 1.22.

Turning to “FEN1 (bait, IN format) (from UniProt P39748 1-380) (enzyme)”, the values for the PLU mean in experiment [9] and in experiment [12] were 0.349 and 0.342, respectively.

“HBA2 (bait, IN format) (from UniProt P69905 1-142)”: the PLU mean in experiment [13] was found to be 0.171.

Regarding “HDAC1 (bait, IN format) (from UniProt Q13547 1-482) (enzyme)”, the PLU mean in [14] is 0.247; in [15], 0.54; in experiment [16], 0.492; in [17], 0.222.

Turning to “MAFG (bait, IN format) (from UniProt O15525 1-162)”, the PLU mean in experiment [18] was 0.341; in [19], 1.72; in experiment [20], 0.459.

“MCM2 (bait, IN format) (from UniProt P49736 1-904)”: the PLU mean in [21] was 0.102; in experiment [22], 0.35; in experiment [7], 0.938.

For the substance “RHOA (bait, IN format) (from UniProt P61586 1-193)”, the figures for the PLU mean in [16], in [3] and in experiment [23] were 0.691, 0.36 and 0.486, respectively.

Turning to “SMAD4 (bait, IN format) (from UniProt Q13485 1-552)”, the PLU mean in experiment [24] amounted to 0.398; in experiment [17], 0.215.
